Key:
[1] = molecular target: PDPN ectodomain, monomeric, Avi-tagged, site-specifically biotinylated (Fc tag removed) (human) (UniProt Q86YL7)
[2] = molecular target: T1, CLEC-2 recombinant ectodomain, Fc-tagged (human, UniProt Q9P126 55-229); assay: SPR; CLEC-2 or CD177 ectodomains immobilised by amine coupling, 300-400 resonance units; Avi-tagged monomeric PDPN ectodomain as analyte; equilibrium fit for CD177, Langmuir model for CLEC-2; details: both partners purified
T1 construct: C-type lectin receptor CLEC-2 (CLEC1B), human, ectodomain; The methods describe a general pRK5 vector with a C-terminal human Fc tag; CLEC-2 is a type II membrane protein, so the real end of the Fc may differ; also called Clec1b; recombinant human CLEC-2

[3] = molecular target: CD177 recombinant ectodomain, Fc-tagged (human) (UniProt Q8N6Q3); assay: as above
[4] = molecular target: T1, CLEC-2 recombinant ectodomain, Fc-tagged; assay: SPR; CLEC-2 or CD177 ectodomains immobilised by amine coupling on GLC (Proteon XPR36) or CM5 (Biacore 3000) chips; Avi-Fc-tagged PDPN as soluble analyte at the indicated concentrations; PBS with 0.01% Tween-20 (Proteon) or HBS-P pH 7.4 (Biacore); details: both partners purified

T1 sequence (Q9P126 55-229): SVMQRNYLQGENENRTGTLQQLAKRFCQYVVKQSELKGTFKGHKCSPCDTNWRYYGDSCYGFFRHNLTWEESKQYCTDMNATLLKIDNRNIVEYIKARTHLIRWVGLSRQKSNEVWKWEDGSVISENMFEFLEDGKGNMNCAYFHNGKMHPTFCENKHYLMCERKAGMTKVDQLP
Chain of CD177 recombinant ectodomain, Fc-tagged (human) (Q8N6Q3 22-408): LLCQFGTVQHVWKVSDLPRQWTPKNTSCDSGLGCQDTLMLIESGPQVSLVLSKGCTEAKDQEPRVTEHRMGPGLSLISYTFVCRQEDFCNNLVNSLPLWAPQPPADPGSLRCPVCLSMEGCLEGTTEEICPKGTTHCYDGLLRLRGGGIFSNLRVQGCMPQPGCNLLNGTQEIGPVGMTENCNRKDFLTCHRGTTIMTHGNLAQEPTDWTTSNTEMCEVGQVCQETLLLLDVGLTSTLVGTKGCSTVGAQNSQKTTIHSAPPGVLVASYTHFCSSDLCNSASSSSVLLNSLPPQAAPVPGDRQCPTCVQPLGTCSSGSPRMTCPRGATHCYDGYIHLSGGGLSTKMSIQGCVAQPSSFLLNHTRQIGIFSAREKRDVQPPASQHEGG

Which inhibition of CAF contractility (gel contraction assay) by recombinant CD177 [1] does the source give for “CD177 recombinant ectodomain, Fc-tagged (from UniProt Q8N6Q3 22-408) (Fc fusion)” here?
Its inhibition of CAF contractility (gel contraction assay) by recombinant CD177 is 20%.

B1: PDPN ectodomain, monomeric, Avi-tagged, site-specifically biotinylated (Fc tag removed) (domain or fragment, human, UniProt Q86YL7 23-131, looked up)
chain: ASTGQPEDDTETTGLEGGVAMPGAEDDVVTPGTSEDRYKSGLTTLVATSVNSVTGIRIEDLPTSESTVHAQEQSPSATASNVATSHSTEKVDGDTQTTVEKDGLSTVTL
modifications: biotin on the Avi tag (site-specific, in vitro, BirA)
notes: podoplanin (PDPN), human, ectodomain; the methods describe biotinylation of the Avi-tagged product after removal of the Fc; Also used here as the PDPN of the functional rows (there PDPN is endogenous on fibroblasts); also called podoplanin; gp38; source: mammalian cells, purified; biotinylated in vitro with BirA; not shown: Fc (human IgG1), C-terminal, cleaved
Which results are given for B1?
Kd [2]: 210 ± 0.3 nM; Kd [3]: 3300 nM

B2: PDPN ectodomain, Avi-Fc-tagged (Fc fusion, human, UniProt Q86YL7 23-131, looked up)
chain: ASTGQPEDDTETTGLEGGVAMPGAEDDVVTPGTSEDRYKSGLTTLVATSVNSVTGIRIEDLPTSESTVHAQEQSPSATASNVATSHSTEKVDGDTQTTVEKDGLSTVTL
notes: podoplanin (PDPN), human, ectodomain; pRK5 vector with C-terminal human IgG1 Fc; also called Avi-Fc-tagged PDPN; AviFc-tagged PDPN; source: mammalian cells, purified; not shown: Fc (human IgG1), C-terminal, kept
Does B2 bind [4]?
Result: binds
